Results on two molecules are retold here after article PMC8964413 (Nature chemical biology, 2022).

The target of assay [1] is unanchored wild-type K63-linked di-Ub (UniProt P0CG48). The experiment in a line: cell-based or functional assay.
The target of assay [2] is donor ubiquitin (Ub^D), from His-TEV-Ub^WT (UniProt P0CG48 1-76, in the crystal: G76 isopeptide-linked to K92 of UBE2K). Kind of assay: crystal structure.

Where a chain is given by its changes, count along the chain named. In names and notes the source's numbering stands.

B1: UBE2K^WT (enzyme)
chain: MANIAVQRIKREFKEVLKSEETSKNQIKVDLVDENFTELRGEIAGPPDTPYEGGRYQLEIKIPETYPFNPPKVRFITKIWHPNISSVTGAICLDILKDQWAAAMTLRTVLLSLQALLAAAEPDDPQDAVVANQYKQNPEMFKQTARLWAHVYAGAPVSSPEYTKKIENLCAMGFDRNAVIVALSSKSWDVETATELLLSN
On to B1, for which the “k cat/K m of tri-Ub formation, K63-Ub2 as acceptor” value in assay [1] came to 418 M⁻¹ s⁻¹.

B2: UBE2K^C92K,K97R,D124C,C170S (enzyme)
chain: B1 chain with C92K, K97R, D124C, C170S
B2: in assay [2], the binding result is “binds”.
